Laboratory results reported in paper PMC5711802, “Conservation of folding and association within a family of spidroin N-terminal domains” (Scientific Reports, 2017).

Assays:
[1] = molecular target: N-terminal domain (NTD) of major ampullate spidroin 1 (MaSp1) from Nephila clavipes (Nephila clavipes); test: SEC-MALS; dimer conditions: 20 mM MES pH 6.0, ionic strength 60 mM (KCl); 100 uL at 5 mg/mL on Superdex-75 HR10/300, 0.5 ml/min
[2] = molecular target: N-terminal domain (NTD) of major ampullate spidroin 1 (MaSp1) from Nephila clavipes (Nephila clavipes); test: stopped-flow tryptophan fluorescence + other: stopped-flow AttoOxa11 fluorescence chasing experiment; dimer to monomers; Kd calculated as k diss/k ass from the two kinetic experiments; pH 6.0, 298 K
[3] = molecular target: N-terminal domain (NTD) of major ampullate spidroin 1 (MaSp1) from Nephila clavipes (Nephila clavipes); test: stopped-flow tryptophan fluorescence (association kinetics); monomer to dimer; monomeric NTD in 10 mM MES pH 7.0, I 150 mM (KCl), mixed 1:11 into 20 mM MES pH 6.0; three concentrations between 0.1 and 1 uM; 298 K; fit to a kinetic model of dimerization
[4] = molecular target: MaSp1 N-terminal domain (NTD), L. hesperus (UniProt A6YIY1); test: Kd calculated by the authors from the stopped-flow rate constants (kdiss from C4 / kass from C3); details: pH 6.0; 298 K; about 60 mM (KCl) for kdiss; not stated exactly for kass; 20 mM MES pH 6.0
[5] = molecular target: MaSp1 N-terminal domain (NTD), L. hesperus (UniProt A6YIY1); test: stopped-flow Trp fluorescence, pH jump (association kinetics); details: pH 6.0; 298 K; final value not stated (sample at I 150 mM KCl diluted 1:11 into 20 mM MES pH 6.0); 20 mM MES pH 6.0 after mixing (start: 10 mM MES pH 7.0)
[6] = molecular target: MaSp1 NTD Q50C-AttoOxa11, E. australis Q50C (UniProt Q05H60); test: stopped-flow AttoOxa11 fluorescence, chasing experiment (dissociation kinetics); details: pH 6.0; 298 K; I adjusted to 60 mM using potassium chloride; 20 mM MES pH 6.0
[7] = molecular target: MaSp1 NTD Q50C-AttoOxa11, L. hesperus Q50C (UniProt A6YIY1); test: as above; details: pH 6.0; 298 K; I adjusted to 60 mM using potassium chloride; 20 mM MES pH 6.0
[8] = molecular target: MaSp1 NTD Q50C-AttoOxa11, N. clavipes Q50C (UniProt B5SYS5); test: as above; details: pH 6.0; 298 K; I adjusted to 60 mM using potassium chloride; 20 mM MES pH 6.0
[9] = molecular target: AttoOxa11-modified Q50C mutant of the MaSp1 NTD from Euprosthenops australis (Euprosthenops australis); test: stopped-flow AttoOxa11 fluorescence chasing experiment (dissociation kinetics); dimer to monomers; 0.1 uM dimeric AttoOxa11-modified NTD in 20 mM MES pH 6.0, I 60 mM (KCl), chased with 9 uM non-modified NTD in the same buffer; 0.3 mg/mL BSA and 0.05% Tween-20; 298 K; mono-exponential fit
[10] = molecular target: MaSp1 N-terminal domain (NTD), L. geometricus; test: Kd calculated by the authors from the stopped-flow rate constants (kdiss from C4 / kass from C3); details: pH 6.0; 298 K; about 60 mM (KCl) for kdiss; not stated exactly for kass; 20 mM MES pH 6.0
[11] = molecular target: MaSp1 N-terminal domain (NTD), L. geometricus; test: stopped-flow Trp fluorescence, pH jump (association kinetics); details: pH 6.0; 298 K; final value not stated (sample at I 150 mM KCl diluted 1:11 into 20 mM MES pH 6.0); 20 mM MES pH 6.0 after mixing (start: 10 mM MES pH 7.0)
[12] = molecular target: MaSp1 NTD Q50C-AttoOxa11, L. geometricus Q50C; test: stopped-flow AttoOxa11 fluorescence, chasing experiment (dissociation kinetics); details: pH 6.0; 298 K; I adjusted to 60 mM using potassium chloride; 20 mM MES pH 6.0
[13] = molecular target: MaSp1 N-terminal domain (NTD), N. clavipes (UniProt B5SYS5); test: Kd calculated by the authors from the stopped-flow rate constants (kdiss from C4 / kass from C3); details: pH 6.0; 298 K; about 60 mM (KCl) for kdiss; not stated exactly for kass; 20 mM MES pH 6.0
[14] = molecular target: MaSp1 N-terminal domain (NTD), N. clavipes (UniProt B5SYS5); test: stopped-flow Trp fluorescence, pH jump (association kinetics); details: pH 6.0; 298 K; final value not stated (sample at I 150 mM KCl diluted 1:11 into 20 mM MES pH 6.0); 20 mM MES pH 6.0 after mixing (start: 10 mM MES pH 7.0)
[15] = molecular target: MaSp1 N-terminal domain (NTD), E. australis (UniProt Q05H60); test: Kd calculated by the authors from the stopped-flow rate constants (kdiss from C4 / kass from C3); details: pH 6.0; 298 K; about 60 mM (KCl) for kdiss; not stated exactly for kass; 20 mM MES pH 6.0
[16] = molecular target: MaSp1 N-terminal domain (NTD), E. australis (UniProt Q05H60); test: stopped-flow Trp fluorescence, pH jump (association kinetics); details: pH 6.0; 298 K; final value not stated (sample at I 150 mM KCl diluted 1:11 into 20 mM MES pH 6.0); 20 mM MES pH 6.0 after mixing (start: 10 mM MES pH 7.0)
[17] = molecular target: N-terminal domain (NTD) of major ampullate spidroin 1 (MaSp1) from Latrodectus hesperus (Latrodectus hesperus); test: SEC-MALS; dimer conditions: 20 mM MES pH 6.0, ionic strength 60 mM (KCl); 100 uL at 5 mg/mL on Superdex-75 HR10/300, 0.5 ml/min
[18] = molecular target: N-terminal domain (NTD) of major ampullate spidroin 1 (MaSp1) from Latrodectus hesperus (Latrodectus hesperus); test: stopped-flow tryptophan fluorescence + other: stopped-flow AttoOxa11 fluorescence chasing experiment; dimer to monomers; Kd calculated as k diss/k ass from the two kinetic experiments; pH 6.0, 298 K
[19] = molecular target: N-terminal domain (NTD) of major ampullate spidroin 1 (MaSp1) from Latrodectus hesperus (Latrodectus hesperus); test: stopped-flow tryptophan fluorescence (association kinetics); monomer to dimer; monomeric NTD in 10 mM MES pH 7.0, I 150 mM (KCl), mixed 1:11 into 20 mM MES pH 6.0; three concentrations between 0.1 and 1 uM; 298 K; fit to a kinetic model of dimerization
[20] = molecular target: T1, N-terminal domain (NTD) of major ampullate spidroin 1 (MaSp1) from Euprosthenops australis (Euprosthenops australis), Q05H60; test: as above; details: remark: other sources report otherwise
T1 chain: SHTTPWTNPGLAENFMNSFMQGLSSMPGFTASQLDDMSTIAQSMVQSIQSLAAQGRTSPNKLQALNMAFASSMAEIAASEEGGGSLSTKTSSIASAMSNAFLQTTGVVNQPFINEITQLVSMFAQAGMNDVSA

[21] = molecular target: T1, N-terminal domain (NTD) of major …; test: stopped-flow tryptophan fluorescence + other: stopped-flow AttoOxa11 fluorescence chasing experiment; dimer to monomers; Kd calculated as k diss/k ass from the two kinetic experiments; pH 6.0, 298 K; details: remark: other sources report otherwise
[22] = molecular target: T1, N-terminal domain (NTD) of major …; test: SEC-MALS; dimer conditions: 20 mM MES pH 6.0, ionic strength 60 mM (KCl); 100 uL at 5 mg/mL on Superdex-75 HR10/300, 0.5 ml/min; details: remark: other sources report otherwise
[23] = molecular target: the molecule itself; test: stopped-flow AttoOxa11 fluorescence chasing experiment (dissociation kinetics); dimer to monomers; 0.1 uM dimeric AttoOxa11-modified NTD in 20 mM MES pH 6.0, I 60 mM (KCl), chased with 9 uM non-modified NTD in the same buffer; 0.3 mg/mL BSA and 0.05% Tween-20; 298 K; mono-exponential fit
[24] = molecular target: the molecule itself; test: stopped-flow tryptophan fluorescence (association kinetics); monomer to dimer; monomeric NTD in 10 mM MES pH 7.0, I 150 mM (KCl), mixed 1:11 into 20 mM MES pH 6.0; three concentrations between 0.1 and 1 uM; 298 K; fit to a kinetic model of dimerization
[25] = molecular target: the molecule itself; test: stopped-flow tryptophan fluorescence + other: stopped-flow AttoOxa11 fluorescence chasing experiment; dimer to monomers; Kd calculated as k diss/k ass from the two kinetic experiments; pH 6.0, 298 K
[26] = molecular target: the molecule itself; test: SEC-MALS; dimer conditions: 20 mM MES pH 6.0, ionic strength 60 mM (KCl); 100 uL at 5 mg/mL on Superdex-75 HR10/300, 0.5 ml/min

N-terminal domain (NTD) of major ampullate spidroin 1 (MaSp1) from Nephila clavipes (domain or fragment)
stoichiometry N [1]: 2 | K d [2]: 730 pM | kon [3]: 2.58e+09 M⁻¹ s⁻¹

MaSp1 N-terminal domain (NTD), L. hesperus
K d [4]: 0.14 10^-9 M | k ass (10^9 M^-1 s^-1) [5]: 2.19

MaSp1 NTD Q50C-AttoOxa11, E. australis Q50C
k diss [6]: 1.68 s⁻¹

MaSp1 NTD Q50C-AttoOxa11, L. hesperus Q50C
k diss [7]: 0.31 s⁻¹

MaSp1 NTD Q50C-AttoOxa11, N. clavipes Q50C
k diss [8]: 1.88 s⁻¹

AttoOxa11-modified Q50C mutant of the MaSp1 NTD from Euprosthenops australis (domain or fragment)
koff [9]: 1.68 s⁻¹

MaSp1 N-terminal domain (NTD), L. geometricus
K d [10]: 0.46 10^-9 M | k ass (10^9 M^-1 s^-1) [11]: 1.39

MaSp1 NTD Q50C-AttoOxa11, L. geometricus Q50C
k diss [12]: 0.64 s⁻¹

MaSp1 N-terminal domain (NTD), N. clavipes
K d [13]: 0.73 10^-9 M | k ass (10^9 M^-1 s^-1) [14]: 2.58

MaSp1 N-terminal domain (NTD), E. australis
K d [15]: 1.07 10^-9 M | k ass (10^9 M^-1 s^-1) [16]: 1.58

N-terminal domain (NTD) of major ampullate spidroin 1 (MaSp1) from Latrodectus hesperus (domain or fragment)
stoichiometry N [17]: 2 | K d [18]: 140 pM | kon [19]: 2.19e+09 M⁻¹ s⁻¹

B1: N-terminal domain (NTD) of major ampullate spidroin 1 (MaSp1) from Euprosthenops australis, Q05H60 24-156 (domain or fragment)
chain: SHTTPWTNPGLAENFMNSFMQGLSSMPGFTASQLDDMSTIAQSMVQSIQSLAAQGRTSPNKLQALNMAFASSMAEIAASEEGGGSLSTKTSSIASAMSNAFLQTTGVVNQPFINEITQLVSMFAQAGMNDVSA
kon [20]: 1.58e+09 M⁻¹ s⁻¹ | K d [21]: 1070 pM | stoichiometry N [22]: 2

B2: AttoOxa11-modified Q50C mutant of the MaSp1 NTD from Latrodectus hesperus (domain or fragment)
chain: PWSSKANADAFINSFISAASNTGSFSQDQMEDMSLIGNTLMCAMDNMGGRITPSKLQALDMAFASSVAEIAASEGGDLGVTTNAIADALTSAFYQTTGVVNSRFISEIRSLIGMFAQASAN
modifications: AttoOxa11 (maleimide derivative) on the cysteine at sequence position 50
koff [23]: 0.31 ± 0.02 s⁻¹

B3: N-terminal domain (NTD) of major ampullate spidroin 1 (MaSp1) from Latrodectus geometricus (domain or fragment)
chain: PWSSKANADAFINSFISSAQNTGSFSQDQMDDMSLIGNTLMTAMDNMGGRITPSKLQALDMAFASSVAEIAASEGGDLGVTTNAIADALTSAFYQTTGVVNNRFISEIRSLISMFAQASAN
kon [24]: 1.39e+09 M⁻¹ s⁻¹ | Kd [25]: 460 pM | stoichiometry N [26]: 2

B4: AttoOxa11-modified Q50C mutant of the MaSp1 NTD from Latrodectus geometricus (domain or fragment)
chain: PWSSKANADAFINSFISSAQNTGSFSQDQMDDMSLIGNTLMCAMDNMGGRITPSKLQALDMAFASSVAEIAASEGGDLGVTTNAIADALTSAFYQTTGVVNNRFISEIRSLISMFAQASAN
modifications: AttoOxa11 (maleimide derivative) on the cysteine at sequence position 50
koff [23]: 0.64 ± 0.02 s⁻¹

B5: AttoOxa11-modified Q50C mutant of the MaSp1 NTD from Nephila clavipes (domain or fragment)
chain: PWSSTELADAFINAFMNEAGRTGAFTADQLDDMSTIGDTIKCAMDKMARSNKSSKGKLQALNMAFASSMAEIAAVEQGGLSVDAKTNAIADSLNSAFYQTTGAANPQFVNEIRSLINMFAQSSAN
modifications: AttoOxa11 (maleimide derivative) on the cysteine at sequence position 50
koff [23]: 1.88 ± 0.05 s⁻¹
